According to article PMC10786891, “Massively parallel profiling of RNA-targeting CRISPR-Cas13d”:

T1: EsCas13d, nuclease-dead (Eubacterium siraeum, UniProt B0MS50, R295A;H300A;R849A;H854A)
T1 sequence: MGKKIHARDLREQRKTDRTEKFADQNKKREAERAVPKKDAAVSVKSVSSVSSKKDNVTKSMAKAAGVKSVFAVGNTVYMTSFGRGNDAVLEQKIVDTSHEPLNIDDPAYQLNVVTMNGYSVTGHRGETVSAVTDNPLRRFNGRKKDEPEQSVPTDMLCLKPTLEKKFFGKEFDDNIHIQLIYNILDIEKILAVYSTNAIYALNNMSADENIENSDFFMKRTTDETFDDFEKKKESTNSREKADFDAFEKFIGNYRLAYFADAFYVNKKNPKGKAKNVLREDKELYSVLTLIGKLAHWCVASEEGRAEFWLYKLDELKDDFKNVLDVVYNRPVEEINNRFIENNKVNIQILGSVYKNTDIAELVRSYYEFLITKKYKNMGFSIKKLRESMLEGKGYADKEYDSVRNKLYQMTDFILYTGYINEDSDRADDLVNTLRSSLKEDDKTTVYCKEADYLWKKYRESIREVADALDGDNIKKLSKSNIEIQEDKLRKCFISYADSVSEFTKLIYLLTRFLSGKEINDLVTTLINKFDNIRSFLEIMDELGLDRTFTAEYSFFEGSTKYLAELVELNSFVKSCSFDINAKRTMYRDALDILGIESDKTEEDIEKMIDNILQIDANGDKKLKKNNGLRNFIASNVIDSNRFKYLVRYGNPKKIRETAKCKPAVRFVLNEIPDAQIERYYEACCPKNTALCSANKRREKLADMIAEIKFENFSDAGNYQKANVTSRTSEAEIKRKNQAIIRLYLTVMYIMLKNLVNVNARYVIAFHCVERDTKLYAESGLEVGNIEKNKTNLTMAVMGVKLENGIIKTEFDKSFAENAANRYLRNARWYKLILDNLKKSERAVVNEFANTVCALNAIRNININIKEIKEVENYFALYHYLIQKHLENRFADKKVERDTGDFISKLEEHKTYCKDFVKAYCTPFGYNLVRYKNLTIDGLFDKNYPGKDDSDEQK

B1: target 1 G15U,A16U (mixed)
RNA 1: CACCCGUGCAAAAAUGCAGGGGUCUAAAACUGAGCGGAUAACCUCUCUAUGG
RNA 2: GGGAAUGGAUCCACAUCUACGAAUUCGUACCAUAGUUAGGUUAUCCGCUCACCGAGAUCGGAAGAGCACACGU
B2: target 1 A1C,U3C (mixed)
RNA 1: CACCCGUGCAAAAAUGCAGGGGUCUAAAACUGAGCGGAUAACCUCUCUAUGG
RNA 2: GGGAAUGGAUCCACAUCUACGAAUUCGUACCAUAGAGAGGUUAUCCGCCCCCCGAGAUCGGAAGAGCACACGU
B3: target 3 C1G,U2G (mixed)
RNA 1: CACCCGUGCAAAAUUGCAGGGGUCUAAAACGACCUGAAUAUUUCAGAUCAAA
RNA 2: GGGAAUGGAUCCACAUCUACGAAUUCGUUUUUGAUCUGAAAUAUUCAGGGGUGCAGAUCGGAAGAGCACACGU
B4: target 3 insA 3' of 22,insC 3' of 4 (mixed)
RNA 1: CACCCGUGCAAAAUUGCAGGGGUCUAAAACGACCUGAAUAUUUCAGAUCAAA
RNA 2: GGGAAUGGAUCCACAUCUACGAAUUCGUUUAUUGAUCUGAAAUAUUCAGCGUCUGCAGAUCGGAAGAGCACACGU
B5: target 3 insC 3' of 4,insU 3' of 4 (mixed)
RNA 1: CACCCGUGCAAAAUUGCAGGGGUCUAAAACGACCUGAAUAUUUCAGAUCAAA
RNA 2: GGGAAUGGAUCCACAUCUACGAAUUCGUUUUUGAUCUGAAAUAUUCAGCUGUCUGCAGAUCGGAAGAGCACACGU
B6: target 3 G4C,C6U (mixed)
RNA 1: CACCCGUGCAAAAUUGCAGGGGUCUAAAACGACCUGAAUAUUUCAGAUCAAA
RNA 2: GGGAAUGGAUCCACAUCUACGAAUUCGUUUUUGAUCUGAAAUAUUUACGUCUGCAGAUCGGAAGAGCACACGU
B7: target 3 insA 3' of 6,insU 3' of 6 (mixed)
RNA 1: CACCCGUGCAAAAUUGCAGGGGUCUAAAACGACCUGAAUAUUUCAGAUCAAA
RNA 2: GGGAAUGGAUCCACAUCUACGAAUUCGUUUUUGAUCUGAAAUAUUCAUAGGUCUGCAGAUCGGAAGAGCACACGU
B8: target 3 C1G,G4U (mixed)
RNA 1: CACCCGUGCAAAAUUGCAGGGGUCUAAAACGACCUGAAUAUUUCAGAUCAAA
RNA 2: GGGAAUGGAUCCACAUCUACGAAUUCGUUUUUGAUCUGAAAUAUUCAUGUGUGCAGAUCGGAAGAGCACACGU
B9: target 3 C6U,U22G (mixed)
RNA 1: CACCCGUGCAAAAUUGCAGGGGUCUAAAACGACCUGAAUAUUUCAGAUCAAA
RNA 2: GGGAAUGGAUCCACAUCUACGAAUUCGUUGUUGAUCUGAAAUAUUUAGGUCUGCAGAUCGGAAGAGCACACGU
B10: target 3 C1A,G4U (mixed)
RNA 1: CACCCGUGCAAAAUUGCAGGGGUCUAAAACGACCUGAAUAUUUCAGAUCAAA
RNA 2: GGGAAUGGAUCCACAUCUACGAAUUCGUUUUUGAUCUGAAAUAUUCAUGUAUGCAGAUCGGAAGAGCACACGU
B11: target 3 G3U,U8G (mixed)
RNA 1: CACCCGUGCAAAAUUGCAGGGGUCUAAAACGACCUGAAUAUUUCAGAUCAAA
RNA 2: GGGAAUGGAUCCACAUCUACGAAUUCGUUUUUGAUCUGAAAUAGUCAGUUCUGCAGAUCGGAAGAGCACACGU
B12: target 3 C1G,G3A (mixed)
RNA 1: CACCCGUGCAAAAUUGCAGGGGUCUAAAACGACCUGAAUAUUUCAGAUCAAA
RNA 2: GGGAAUGGAUCCACAUCUACGAAUUCGUUUUUGAUCUGAAAUAUUCAGAUGUGCAGAUCGGAAGAGCACACGU
B13: target 3 A5G,U7C (mixed)
RNA 1: CACCCGUGCAAAAUUGCAGGGGUCUAAAACGACCUGAAUAUUUCAGAUCAAA
RNA 2: GGGAAUGGAUCCACAUCUACGAAUUCGUUUUUGAUCUGAAAUAUCCGGGUCUGCAGAUCGGAAGAGCACACGU

Each binder was assayed against T1, EsCas13d, nuclease-dead (assay: crRNA (strand 1, pre-loaded); Mg2+; 40 mM Tris-HCl pH 7.5, 150 mM NaCl, 6 mM MgCl2, 1 mM DTT, 0.1% Tween-20, 0.2 mg/ml BSA; 25 C; 10 min per concentration, then washed). Conditions: tags: His6-TwinStrep-SUMO cleaved; N-terminal SNAP kept (SNAP-Surface 488); label: 3' end held by stalled T7 RNA polymerase.
In the case of B1, the Kd is reported as 15.6 ± 0.7 nM.
In the case of B2, the Kd is reported as 18 ± 4 nM.
Binder B3 has a Kd of 12.8 ± 1.6 nM.
Work on B4 yielded a Kd of 19.4 ± 4.55 nM.
B5 showed a Kd of 25 ± 3.25 nM.
Binder B6 has a Kd of 20.2 ± 1.85 nM.
With B7 the Kd was 5.3 ± 0.39 nM.
Work on B8 yielded a Kd of 13.4 ± 1.65 nM.
Binder B9 has a Kd of 51.5 ± 6 nM.
For B10, the Kd was 17.4 ± 4.35 nM.
B11 showed a Kd of 68 ± 10 nM.
In the case of B12, the Kd is reported as 80 ± 40 nM.
In the case of B13, the Kd is reported as 66.5 ± 11 nM.
